± gives the standard deviation of the averaged measurements.
Key:
[1] = test system: hTERT-HMEC; test: percentage of EdU-negative (G0-arrested) nuclei per well, 72 h; higher = more G0 arrest; conditions: reference: sequence is the full UniProt precursor, the tested protein was the secreted form or ectodomain
[2] = test system: MCF7; test: as above; conditions: reference: sequence is the full UniProt precursor, the tested protein was the secreted form or ectodomain
[3] = protein concentration 0.0225 µM
[4] = protein concentration 0.022125 µM
[5] = protein concentration 0.22125 µM
[6] = protein concentration 0.03125 µM
[7] = protein concentration 0.3125 µM
[8] = protein concentration 0.02125 µM
[9] = protein concentration 0.2125 µM
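Note: secreted proteins added to cultured cells, EdU pulse at the end, nuclei found by Hoechst imaging, EdU status from nuclear versus surrounding ring intensity ratio, PBS as neutral control.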

MDMAWQMMQLLLLALVTAAGSAQPRSARARTDLLNVCMNAKHHKTQPSPEDELYGQCSPWKKNACCTASTSQELHKDTSRLYNFNWDHCGKMEPTCKRHFIQDSCLYECSPNLGPWIRQVNQSWRKERILNVPLCKEDCERWWEDCRTSYTCKSNWHKGWNWTSGINECPAGALCSTFESYFPTPAALCEGLWSHSFKVSNYSRGSGRCIQMWFDSAQGNPNEEVAKFYAAAMNAGAPSRGIIDS [A0A087WXL1]
percentage of EdU-negative [1, 3]: 5.28 ± 0.77%
percentage of EdU-negative ([1]; protein concentration 0.225 µM): 4.93 ± 0.46%
percentage of EdU-negative [2, 3]: 25.4 ± 0.5%
percentage of EdU-negative ([2]; protein concentration 0.225 µM): 24 ± 1.3%

MDMWTALLILQALLLPSLADGATPALRFVAVGDWGGVPNAPFHTAREMANAKEIARTVQILGADFILSLGDNFYFTGVQDINDKRFQETFEDVFSDRSLRKVPWYVLAGNHDHLGNVSAQIAYSKISKRWNFPSPFYRLHFKIPQTNVSVAIFMLDTVTLCGNSDDFLSQQPERPRDVKLARTQLSWLKKQLAAAREDYVLVAGHYPVWSIAEHGPTHCLVKQLRPLLATYGVTAYLCGHDHNLQYLQDENGVGYVLSGAGNFMDPSKRHQRKVPNGYLRFHYGTEDSLGGFAYVEISSKEMTVTYIEASGKSLFKTRLPRRARP
percentage of EdU-negative [1, 4]: 4.67 ± 0.33%
percentage of EdU-negative [1, 5]: 8.42 ± 0.15%
percentage of EdU-negative [2, 4]: 24.4 ± 1.2%
percentage of EdU-negative [2, 5]: 28.4 ± 1.4%

MDPGLQQALNGMAPPGDTAMHVPAGSVASHLGTTSRSYFYLTTATLALCLVFTVATIMVLVVQRTDSIPNSPDNVPLKGGNCSEDLLCILKRAPFKKSWAYLQVAKHLNKTKLSWNKDGILHGVRYQDGNLVIQFPGLYFIICQLQFLVQCPNNSVDLKLELLINKHIKKQALVTVCESGMQTKHVYQNLSQFLLDYLQVNTTISVNVDTFQYIDTSTFPLENVLSIFLYSNSD
percentage of EdU-negative [1, 3]: 4.46 ± 0.73%
percentage of EdU-negative ([1]; protein concentration 0.225 µM): 6.03 ± 0.4%
percentage of EdU-negative [2, 3]: 28 ± 0.99%
percentage of EdU-negative ([2]; protein concentration 0.225 µM): 27.5 ± 1.8%

MDPKGLLSLTFVLFLSLAFGASYGTGGRMMNCPKILRQLGSKVLLPLTYERINKSMNKSIHIVVTMAKSLENSVENKIVSLDPSEAGPPRYLGDRYKFYLENLTLGIRESRKEDEGWYLMTLEKNVSVQRFCLQLRLYEQVSTPEIKVLNKTQENGTCTLILGCTVEKGDHVAYSWSEKAGTHPLNPANSSHLLSLTLGPQHADNIYICTVSNPISNNSQTFSPWPGCRTDPSETKPWAVYAGLLGGVIMILIMVVILQLRRRGKTNHYQTTVEKKSLTIYAQVQKPGPLQKKLDSFPAQDPCTTIYVAATEPVPESVQETNSITVYASVTLPES
percentage of EdU-negative [1, 3]: 5.0759 ± 0.002%
percentage of EdU-negative ([1]; protein concentration 0.225 µM): 5.04 ± 0.53%
percentage of EdU-negative [2, 3]: 24.3 ± 0.12%
percentage of EdU-negative ([2]; protein concentration 0.225 µM): 23.1 ± 0.27%

MDPKLGRMAASLLAVLLLLLERGMFSSPSPPPALLEKVFQYIDLHQDEFVQTLKEWVAIESDSVQPVPRFRQELFRMMAVAADTLQRLGARVASVDMGPQQLPDGQSLPIPPVILAELGSDPTKGTVCFYGHLDVQPADRGDGWLTDPYVLTEVDGKLYGRGATDNKGPVLAWINAVSAFRALEQDLPVNIKFIIEGMEEAGSVALEELVEKEKDRFFSGVDYIVISDNLWISQRKPAITYGTRGNSYFMVEVKCRDQDFHSGTFGGILHEPMADLVALLGSLVDSSGHILVPGIYDEVVPLTEEEINTYKAIHLDLEEYRNSSRVEKFLFDTKEEILMHLWRYPSLSIHGIEGAFDEPGTKTVIPGRVIGKFSIRLVPHMNVSAVEKQVTRHLEDVFSKRNSSNKMVVSMTLGLHPWIANIDDTQYLAAKRAIRTVFGTEPDMIRDGSTIPIAKMFQEIVHKSVVLIPLGAVDDGEHSQNEKINRWNYIEGTKLFAAFFLEMAQLH [Q96KN2]
percentage of EdU-negative [1, 6]: 5.23 ± 0.23%
percentage of EdU-negative [1, 7]: 5.9 ± 0.65%
percentage of EdU-negative [2, 6]: 24.9 ± 0.15%
percentage of EdU-negative [2, 7]: 23 ± 2.2%

MDPQCTMGLSNILFVMAFLLSGAAPLKIQAYFNETADLPCQFANSQNQSLSELVVFWQDQENLVLNEVYLGKEKFDSVHSKYMGRTSFDSDSWTLRLHNLQIKDKGLYQCIIHHKKPTGMIRIHQMNSELSVLANFSQPEIVPISNITENVYINLTCSSIHGYPEPKKMSVLLRTKNSTIEYDGVMQKSQDNVTELYDVSISLSVSFPDVTSNMTIFCILETDKTRLLSSPFSIELEDPQPPPDHIPWITAVLPTVIICVMVFCLILWKWKKKKRPRNSYKCGTNTMEREESEQTKKREKIHIPERSDEAQRVFKSSKTSSCDKSDTCF
percentage of EdU-negative [1, 3]: 4.6 ± 0.096%
percentage of EdU-negative ([1]; protein concentration 0.225 µM): 6.71 ± 0.18%
percentage of EdU-negative [2, 3]: 24 ± 1.6%
percentage of EdU-negative ([2]; protein concentration 0.225 µM): 25.9 ± 0.81%

MDPRKVNELRAFVKMCKQDPSVLHTEEMRFLREWVESMGGKVPPATQKAKSEENTKEEKPDSKKVEEDLKADEPSSEESDLEIDKEGVIEPDTDAPQEMGDENAEITEEMMDQANDKKVAAIEALNDGELQKAIDLFTDAIKLNPRLAILYAKRASVFVKLQKPNAAIRDCDRAIEINPDSAQPYKWRGKAHRLLGHWEEAAHDLALACKLDYDEDASAMLKEVQPRAQKIAEHRRKYERKREEREIKERIERVKKAREEHERAQREEEARRQSGAQYGSFPGGFPGGMPGNFPGGMPGMGGGMPGMAGMPGLNEILSDPEVLAAMQDPEVMVAFQDVAQNPANMSKYQSNPKVMNLISKLSAKFGGQA
percentage of EdU-negative [1, 8]: 4.96 ± 0.58%
percentage of EdU-negative [1, 9]: 5.35 ± 0.39%
percentage of EdU-negative [2, 8]: 24.8 ± 1.7%
percentage of EdU-negative [2, 9]: 27.4 ± 0.36%
